Assay results as given in patent US20180273626A1 (Stanford University, published 2018).

T1: FcεRI on primary human basophils (human, UniProt P12319 26-257)
T1 construct: whole, on cells; on cells it stands with gamma chains (and a beta chain); also called FcεRIα on basophils; E2_79-treated basophils
T1 sequence (looked up): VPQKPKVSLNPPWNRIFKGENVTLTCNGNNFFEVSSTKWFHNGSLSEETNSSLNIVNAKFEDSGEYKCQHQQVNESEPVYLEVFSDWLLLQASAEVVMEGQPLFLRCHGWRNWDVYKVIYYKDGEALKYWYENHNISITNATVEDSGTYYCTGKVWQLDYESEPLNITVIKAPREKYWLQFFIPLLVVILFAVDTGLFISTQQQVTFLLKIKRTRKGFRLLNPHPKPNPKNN

T2: CD23 on B cells (human, UniProt P06734 1-321)
T2 construct: whole, on cells; also called CD23 receptor; CD23+ B-cells
T2 sequence (looked up): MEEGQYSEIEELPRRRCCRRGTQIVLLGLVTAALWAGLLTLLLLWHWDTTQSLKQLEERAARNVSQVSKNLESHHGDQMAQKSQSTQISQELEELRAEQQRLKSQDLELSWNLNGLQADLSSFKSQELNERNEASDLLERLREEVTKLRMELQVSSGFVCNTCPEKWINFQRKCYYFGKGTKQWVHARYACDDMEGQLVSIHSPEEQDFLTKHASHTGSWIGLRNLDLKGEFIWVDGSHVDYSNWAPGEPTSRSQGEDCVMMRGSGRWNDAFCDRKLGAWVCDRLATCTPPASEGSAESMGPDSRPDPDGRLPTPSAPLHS


Experiments:
[1] = target: T1, FcεRI on primary human basophils; assay: flow cytometry on primary human basophils, anti-biotin staining
Source text: (§1) Blood was drawn from two healthy volunteers and a third volunteer with a history of food allergy ranging in age from 21 to 37 (the protocol for this study was approved by the Institutional Review Board of Stanford University, and all informed consent was obtained from all subjects). Blood was collected in heparin vacutainer tubes (BD), and washed in 10 blood volumes of BF buffer (RPMI-1640 (Life Technologies) supplemented with 10% fetal calf serum (FCS; Gibco) and 1% penicillin/streptomycin (Gibco)). […] The following day cells were washed three times with BF buffer at 4° C. and stained for analysis.
(§2) Stained cells were then lysed with RBS lysis buffer (BioLegend) for 5 min at room temperature, and washed with FACS buffer (PBS pH 7.4 supplemented with 10% FCS). Data were collected on a DxP FACSCAN from Cytek Development in Fremont, Calif. (10 colors with three lasers—488, 639, 407) using FlowJo CE and analyzed using FlowJo (version 10).

CD23 on B cells [2] = target: T2, CD23 on B cells; assay: summary sentence of Example 1
CD23 on B cells [3] = target: T2, CD23 on B cells; assay: flow cytometry on CD23+ B cells
Source text: as §1, §2

binding result [1] | binding result (CD23 on B cells [2]) | binding result (CD23 on B cells [3]) | Binder
binds | binds | – | IgE-R419N-Fc3-4 (other, additional N-linked glycan at N419 (Asn-92 of SEQ ID NO: 2), Mammalian derived (HEK-6E); biotinylated in the basophil exchange assays; also called R419N-IgE-Fc3-4; R419N mutant) CADSNPRGVSAYLSRPSPFDLFIRKSPTITCLVVDLAPSKGTVNLTWSRASGKPVNHSTRKEEKQRNGTLTVTSTLPVGTRDWIEGETYQCNVTHPHLPRALMRSTTKTSGPRAAPEVYAFATPEWPGSRDKRTLACLIQNFMPEDISVQWLHNEVQLPDARHSTTQPRKTKGSGFFVFSRLEVTRAEWEQKDEFICRAVHEAASPSQTVQRAVSVNP
binds | – | binds | IgE-Fc3-4 (other, Made both in insect cells (High Five) and in mammalian cells (HEK-6E); the mammalian protein, biotinylated, was used in the cell assays; also called wild-type IgE-Fc3-4; WT IgE-Fc3-4) CADSNPRGVSAYLSRPSPFDLFIRKSPTITCLVVDLAPSKGTVNLTWSRASGKPVNHSTRKEEKQRNGTLTVTSTLPVGTRDWIEGETYQCRVTHPHLPRALMRSTTKTSGPRAAPEVYAFATPEWPGSRDKRTLACLIQNFMPEDISVQWLHNEVQLPDARHSTTQPRKTKGSGFFVFSRLEVTRAEWEQKDEFICRAVHEAASPSQTVQRAVSVNP
